The target in series [1] is T1, TerR43-138 (Aspergillus terreus SBUG844, UniProt Q0D1P5 43-138).
T1 sequence: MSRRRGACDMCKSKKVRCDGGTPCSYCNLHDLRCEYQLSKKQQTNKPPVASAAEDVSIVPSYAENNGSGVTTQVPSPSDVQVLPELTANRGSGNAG
As to the kind of experiment: SPR; molar ratio 0.88; SPR (Biacore 2000, SA-coated CM3 chip): 10 mM HEPES pH 7.4, 150 mM NaCl, 0.005% P20, 5 mM beta-mercaptoethanol, 1 uM ZnCl2, 25 C; protein 12.5-6400 nM; 1:1 model with mass transport. The following applies: protein: recombinant; (pET-29a; mass used 10218 Da); label: biotin on one strand; 18 bp duplex.

The target of series [2] is T2, TerR35-138 (Aspergillus terreus SBUG844, UniProt Q0D1P5 35-138).
T2 sequence: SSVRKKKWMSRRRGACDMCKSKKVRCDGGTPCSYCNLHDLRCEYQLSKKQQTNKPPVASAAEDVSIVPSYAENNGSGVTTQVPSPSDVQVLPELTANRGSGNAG
As to the kind of experiment: SPR; molar ratio 1.14; SPR (Biacore 2000, SA-coated CM3 chip): 10 mM HEPES pH 7.4, 150 mM NaCl, 0.005% P20, 5 mM beta-mercaptoethanol, 1 uM ZnCl2, 25 C; protein 12.5-6400 nM; 1:1 model with mass transport. The following applies: protein: recombinant; (pET-29a; theoretical mass 11.35 kDa); label: biotin on one strand; 18 bp duplex.

The target of series [3] is T2, TerR35-138. As to the kind of experiment: SPR; molar ratio 1.93; SPR (Biacore 2000, SA-coated CM3 chip): 10 mM HEPES pH 7.4, 150 mM NaCl, 0.005% P20, 5 mM beta-mercaptoethanol, 1 uM ZnCl2, 25 C; protein 12.5-6400 nM; 1:1 model with mass transport. The following applies: protein: recombinant; (pET-29a; theoretical mass 11.35 kDa); label: biotin on one strand; 18 bp duplex.

Series [4] addresses T2, TerR35-138. As to the kind of experiment: SPR; molar ratio 1.19; SPR (Biacore 2000, SA-coated CM3 chip): 10 mM HEPES pH 7.4, 150 mM NaCl, 0.005% P20, 5 mM beta-mercaptoethanol, 1 uM ZnCl2, 25 C; protein 12.5-6400 nM; 1:1 model with mass transport. The following applies: protein: recombinant; (pET-29a; theoretical mass 11.35 kDa); label: biotin on one strand; 18 bp duplex.
Series [5] concerns the target T1, TerR43-138. As to the kind of experiment: SPR; molar ratio 0.92; SPR (Biacore 2000, SA-coated CM3 chip): 10 mM HEPES pH 7.4, 150 mM NaCl, 0.005% P20, 5 mM beta-mercaptoethanol, 1 uM ZnCl2, 25 C; protein 12.5-6400 nM; 1:1 model with mass transport. The following applies: protein: recombinant; (pET-29a; mass used 10218 Da); label: biotin on one strand; 18 bp duplex.

Series [6] has as its target T2, TerR35-138. As to the kind of experiment: SPR; molar ratio 1.51; SPR (Biacore 2000, SA-coated CM3 chip): 10 mM HEPES pH 7.4, 150 mM NaCl, 0.005% P20, 5 mM beta-mercaptoethanol, 1 uM ZnCl2, 25 C; protein 12.5-6400 nM; 1:1 model with mass transport. Particulars: protein: recombinant; (pET-29a; theoretical mass 11.35 kDa); label: biotin on one strand; 18 bp duplex.
The target in series [7] is T1, TerR43-138. As to the kind of experiment: SPR; molar ratio 1.04; SPR (Biacore 2000, SA-coated CM3 chip): 10 mM HEPES pH 7.4, 150 mM NaCl, 0.005% P20, 5 mM beta-mercaptoethanol, 1 uM ZnCl2, 25 C; protein 12.5-6400 nM; 1:1 model with mass transport. Particulars: protein: recombinant; (pET-29a; mass used 10218 Da); label: biotin on one strand; 18 bp duplex.
In series [8] the target is T2, TerR35-138. As to the kind of experiment: SPR; molar ratio 1.62; SPR (Biacore 2000, SA-coated CM3 chip): 10 mM HEPES pH 7.4, 150 mM NaCl, 0.005% P20, 5 mM beta-mercaptoethanol, 1 uM ZnCl2, 25 C; protein 12.5-6400 nM; 1:1 model with mass transport. Particulars: protein: recombinant; (pET-29a; theoretical mass 11.35 kDa); label: biotin on one strand; 18 bp duplex.
Series [9] concerns the target T2, TerR35-138. As to the kind of experiment: SPR; molar ratio 1.87; SPR (Biacore 2000, SA-coated CM3 chip): 10 mM HEPES pH 7.4, 150 mM NaCl, 0.005% P20, 5 mM beta-mercaptoethanol, 1 uM ZnCl2, 25 C; protein 12.5-6400 nM; 1:1 model with mass transport. Particulars: protein: recombinant; (pET-29a; theoretical mass 11.35 kDa); label: biotin on one strand; 18 bp duplex.
Series [10] concerns the target T1, TerR43-138. As to the kind of experiment: SPR; molar ratio 0.91; SPR (Biacore 2000, SA-coated CM3 chip): 10 mM HEPES pH 7.4, 150 mM NaCl, 0.005% P20, 5 mM beta-mercaptoethanol, 1 uM ZnCl2, 25 C; protein 12.5-6400 nM; 1:1 model with mass transport. Particulars: protein: recombinant; (pET-29a; mass used 10218 Da); label: biotin on one strand; 18 bp duplex.
Series [11] addresses T2, TerR35-138. As to the kind of experiment: SPR; molar ratio 1.25; SPR (Biacore 2000, SA-coated CM3 chip): 10 mM HEPES pH 7.4, 150 mM NaCl, 0.005% P20, 5 mM beta-mercaptoethanol, 1 uM ZnCl2, 25 C; protein 12.5-6400 nM; 1:1 model with mass transport. Particulars: protein: recombinant; (pET-29a; theoretical mass 11.35 kDa); label: biotin on one strand; 18 bp duplex.
Series [12] concerns the target T1, TerR43-138. As to the kind of experiment: SPR; molar ratio 1.06; SPR (Biacore 2000, SA-coated CM3 chip): 10 mM HEPES pH 7.4, 150 mM NaCl, 0.005% P20, 5 mM beta-mercaptoethanol, 1 uM ZnCl2, 25 C; protein 12.5-6400 nM; 1:1 model with mass transport. Particulars: protein: recombinant; (pET-29a; mass used 10218 Da); label: biotin on one strand; 18 bp duplex.
Series [13] deals with T2, TerR35-138. As to the kind of experiment: SPR; molar ratio 1.17; SPR (Biacore 2000, SA-coated CM3 chip): 10 mM HEPES pH 7.4, 150 mM NaCl, 0.005% P20, 5 mM beta-mercaptoethanol, 1 uM ZnCl2, 25 C; protein 12.5-6400 nM; 1:1 model with mass transport. Particulars: protein: recombinant; (pET-29a; theoretical mass 11.35 kDa); label: biotin on one strand; 18 bp duplex.
The target of series [14] is T1, TerR43-138. As to the kind of experiment: SPR; molar ratio 0.95; SPR (Biacore 2000, SA-coated CM3 chip): 10 mM HEPES pH 7.4, 150 mM NaCl, 0.005% P20, 5 mM beta-mercaptoethanol, 1 uM ZnCl2, 25 C; protein 12.5-6400 nM; 1:1 model with mass transport. The following applies: protein: recombinant; (pET-29a; mass used 10218 Da); label: biotin on one strand; 18 bp duplex.
The target of series [15] is T2, TerR35-138. As to the kind of experiment: SPR; molar ratio 1.38; SPR (Biacore 2000, SA-coated CM3 chip): 10 mM HEPES pH 7.4, 150 mM NaCl, 0.005% P20, 5 mM beta-mercaptoethanol, 1 uM ZnCl2, 25 C; protein 12.5-6400 nM; 1:1 model with mass transport. The following applies: protein: recombinant; (pET-29a; theoretical mass 11.35 kDa); label: biotin on one strand; 18 bp duplex.

Series [16] has as its target T2, TerR35-138. As to the kind of experiment: SPR; molar ratio 1.74; SPR (Biacore 2000, SA-coated CM3 chip): 10 mM HEPES pH 7.4, 150 mM NaCl, 0.005% P20, 5 mM beta-mercaptoethanol, 1 uM ZnCl2, 25 C; protein 12.5-6400 nM; 1:1 model with mass transport. Particulars: protein: recombinant; (pET-29a; theoretical mass 11.35 kDa); label: biotin on one strand; 18 bp duplex.
Series [17] has as its target T2, TerR35-138. As to the kind of experiment: SPR; molar ratio 0.92; SPR (Biacore 2000, SA-coated CM3 chip): 10 mM HEPES pH 7.4, 150 mM NaCl, 0.005% P20, 5 mM beta-mercaptoethanol, 1 uM ZnCl2, 25 C; protein 12.5-6400 nM; 1:1 model with mass transport. Particulars: protein: recombinant; (pET-29a; theoretical mass 11.35 kDa); label: biotin on one strand; 18 bp duplex.
The target in series [18] is T2, TerR35-138. As to the kind of experiment: SPR; molar ratio 0.95; SPR (Biacore 2000, SA-coated CM3 chip): 10 mM HEPES pH 7.4, 150 mM NaCl, 0.005% P20, 5 mM beta-mercaptoethanol, 1 uM ZnCl2, 25 C; protein 12.5-6400 nM; 1:1 model with mass transport. Particulars: protein: recombinant; (pET-29a; theoretical mass 11.35 kDa); label: biotin on one strand; 18 bp duplex.
In series [19] the target is T2, TerR35-138. As to the kind of experiment: SPR; molar ratio 1.12; SPR (Biacore 2000, SA-coated CM3 chip): 10 mM HEPES pH 7.4, 150 mM NaCl, 0.005% P20, 5 mM beta-mercaptoethanol, 1 uM ZnCl2, 25 C; protein 12.5-6400 nM; 1:1 model with mass transport. The following applies: protein: recombinant; (pET-29a; theoretical mass 11.35 kDa); label: biotin on one strand; 18 bp duplex.

Series [20] concerns the target T1, TerR43-138. As to the kind of experiment: SPR; molar ratio 0.85; SPR (Biacore 2000, SA-coated CM3 chip): 10 mM HEPES pH 7.4, 150 mM NaCl, 0.005% P20, 5 mM beta-mercaptoethanol, 1 uM ZnCl2, 25 C; protein 12.5-6400 nM; 1:1 model with mass transport. The following applies: protein: recombinant; (pET-29a; mass used 10218 Da); label: biotin on one strand; 18 bp duplex.

B1: BS4 (dsDNA)
DNA 1: TCTTCGGCAATACGGACT
DNA 2: AGTCCGTATTGCCGAAGA
As to B1, the Kd was 1.07 ± 0.06 µM in series [1] and 0.0656 ± 0.0006 µM in series [2].

B2: BS2m1 (5'-CGG to CAA) (dsDNA)
DNA 1: TTATCAAACTTTCGGATT
DNA 2: AATCCGAAAGTTTGATAA
Take B2: the equilibrium dissociation constant (Kd) in series [3] was 5.78 ± 0.06 µM.

B3: BS4m2 (C directly after 5'-CGG to G) (dsDNA)
DNA 1: TCTTCGGGAATACGGACT
DNA 2: AGTCCGTATTCCCGAAGA
Regarding B3, the dissociation constant (Kd) in [1] came to 1.37 ± 0.05 µM; in series [4], 0.155 ± 0.001 µM.

B4: BS9 (dsDNA)
DNA 1: GCTTCGGTAATTCGGTAA
DNA 2: TTACCGAATTACCGAAGC
Take B4: the dissociation constant (Kd) turned out to be 0.82 ± 0.004 µM in [5] and 0.041 ± 0.0004 µM in [6].

B5: BS2 (dsDNA)
DNA 1: TTATCGGACTTTCGGATT
DNA 2: AATCCGAAAGTCCGATAA
On to B5, for which the Kd stood at 3.73 ± 0.03 µM in series [7] and 0.536 ± 0.003 µM in [8].

B6: BS5 (dsDNA)
DNA 1: GGGGCGGCTCCTCGGTAC
DNA 2: GTACCGAGGAGCCGCCCC
B6: in [9], the Kd was found to be 1.53 ± 0.06 µM.

B7: BS7 (dsDNA)
DNA 1: ACTTCGGCTATCCGGTTA
DNA 2: TAACCGGATAGCCGAAGT
B7: the Kd came to 0.591 ± 0.002 µM in series [10] and 0.0265 ± 0.0003 µM in series [11].

B8: BS8 (dsDNA)
DNA 1: CGGGCGGTTAGGCGGCAT
DNA 2: ATGCCGCCTAACCGCCCG
On to B8, for which the equilibrium dissociation constant (Kd) in series [12] was determined as 17.2 ± 0.5 µM; in [13] it was 0.286 ± 0.002 µM.

B9: BS4m1 (TT before 5'-CGG to GG) (dsDNA)
DNA 1: TGGGCGGCAATACGGACT
DNA 2: AGTCCGTATTGCCGCCCA
Regarding B9, the results for the Kd in series [14] and in series [15] were 9.3 ± 1 µM and 0.429 ± 0.002 µM, respectively.

B10: BS3 (dsDNA)
DNA 1: GAGACGGAAACTCGGGTT
DNA 2: AACCCGAGTTTCCGTCTC
Consider B10, for which the Kd in [16] came to 0.676 ± 0.003 µM.

B11: BS7m (second CGG half-site mutated) (dsDNA)
DNA 1: ACTTCGGCTATCCAATTA
DNA 2: TAATTGGATAGCCGAAGT
In the case of B11, the Kd in series [17] came out at 0.0253 ± 0.0002 µM.

B12: BS2m2 (3'-CGG to CAA) (dsDNA)
DNA 1: TTATCGGACTTTCAAATT
DNA 2: AATTTGAAAGTCCGATAA
As for B12, in series [18], the Kd amounted to 0.363 ± 0.002 µM.

B13: BS1 (dsDNA)
DNA 1: GAGTCGGCATTACGGCGG
DNA 2: CCGCCGTAATGCCGACTC
For B13, the Kd in [19] stood at 0.527 ± 0.003 µM.

B14: BS6 (dsDNA)
DNA 1: CTCTCGGAAACTCGGAAA
DNA 2: TTTCCGAGTTTCCGAGAG
Regarding B14, the Kd in [20] was determined as 2.05 ± 0.09 µM; in series [8], 0.15 ± 0.001 µM.

These data come from publication PMC4360782, “A new high-performance heterologous fungal expression system based on regulatory elements from the Aspergillus terreus terrein gene cluster”.
